Source: patent US20240409658A1 (Seagen, published 2024)
Read-outs that look alike come from different tables or passages of the source. Each block holds one molecule with its values, some of them ahead of it.

Assays:
[1] = biological target: human CD228 (R&D Systems Custom02; Lot DCWR021505A) (human) (UniProt P08582); test: ELISA on plate-coated human CD228, pH 7.4
[2] = biological target: human CD228 (R&D Systems Custom02; Lot DCWR021505A) (human) (UniProt P08582); test: ELISA on plate-coated human CD228, pH 4.55
[3] = biological target: human CD228 (R&D Systems Custom02; Lot DCWR021505A) (human) (UniProt P08582); test: ELISA on plate-coated human CD228, pH 6.66
[4] = biological target: human CD228 (R&D Systems Custom02; Lot DCWR021505A) (human) (UniProt P08582); test: ELISA on plate-coated human CD228, pH 5.1
[5] = biological target: human CD228 (R&D Systems Custom02; Lot DCWR021505A) (human) (UniProt P08582); test: ELISA on plate-coated human CD228, pH 6.3
[6] = biological target: human CD228 (R&D Systems Custom02; Lot DCWR021505A) (human) (UniProt P08582); test: ELISA on plate-coated human CD228, pH 5.6
[7] = biological target: human CD228 (R&D Systems Custom02; Lot DCWR021505A) (human) (UniProt P08582); test: ELISA on plate-coated human CD228, pH 7.1
[8] = biological target: human CD228 (R&D Systems Custom02; Lot DCWR021505A) (human) (UniProt P08582); test: ELISA on plate-coated human CD228, pH 4
[9] = biological target: human CD228 (R&D Systems Custom02; Lot DCWR021505A) (human) (UniProt P08582); test: ELISA on plate-coated human CD228, pH 5.9
[10] = biological target: human CD228 (R&D Systems Custom02; Lot DCWR021505A) (human) (UniProt P08582); test: ELISA on plate-coated human CD228, pH 7.5
[11] = biological target: T1, human CD228 on the cell surface (RPMI-7951 cells stably expressing human CD228; A375 cells) (human) (UniProt P08582); test: competition flow cytometry, RPMI-7951 cells stably expressing human CD228; competitor 5 nM AF647-labeled mL49; unlabeled antibody 0.06-1000 nM
T1 sequence (looked up): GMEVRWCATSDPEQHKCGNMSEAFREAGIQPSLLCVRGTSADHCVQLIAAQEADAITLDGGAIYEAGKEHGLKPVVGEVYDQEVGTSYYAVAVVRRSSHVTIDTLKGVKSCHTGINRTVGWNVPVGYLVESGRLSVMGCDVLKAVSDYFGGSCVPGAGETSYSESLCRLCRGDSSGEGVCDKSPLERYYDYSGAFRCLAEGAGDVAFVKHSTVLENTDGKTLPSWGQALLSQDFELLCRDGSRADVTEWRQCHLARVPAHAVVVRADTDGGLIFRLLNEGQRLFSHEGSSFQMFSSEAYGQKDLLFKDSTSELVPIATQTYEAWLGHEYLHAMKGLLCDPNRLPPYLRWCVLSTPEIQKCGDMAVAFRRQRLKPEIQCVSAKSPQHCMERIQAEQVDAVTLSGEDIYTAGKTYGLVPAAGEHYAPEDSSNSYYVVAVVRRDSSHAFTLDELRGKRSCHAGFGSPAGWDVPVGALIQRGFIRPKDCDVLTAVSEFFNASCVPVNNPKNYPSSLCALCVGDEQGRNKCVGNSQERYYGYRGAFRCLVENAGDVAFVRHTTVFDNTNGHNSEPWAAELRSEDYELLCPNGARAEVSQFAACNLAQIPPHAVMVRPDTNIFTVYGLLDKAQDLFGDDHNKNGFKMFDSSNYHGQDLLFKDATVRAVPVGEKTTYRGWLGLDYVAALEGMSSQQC

[12] = biological target: T2, human CD228 on the cell surface (RPMI-7951 cells stably expressing human CD228; A375 cells) (human, UniProt P08582 20-709); test: as above
T2 construct: whole, on cells; also called p97; melanotransferrin
T2 sequence (looked up): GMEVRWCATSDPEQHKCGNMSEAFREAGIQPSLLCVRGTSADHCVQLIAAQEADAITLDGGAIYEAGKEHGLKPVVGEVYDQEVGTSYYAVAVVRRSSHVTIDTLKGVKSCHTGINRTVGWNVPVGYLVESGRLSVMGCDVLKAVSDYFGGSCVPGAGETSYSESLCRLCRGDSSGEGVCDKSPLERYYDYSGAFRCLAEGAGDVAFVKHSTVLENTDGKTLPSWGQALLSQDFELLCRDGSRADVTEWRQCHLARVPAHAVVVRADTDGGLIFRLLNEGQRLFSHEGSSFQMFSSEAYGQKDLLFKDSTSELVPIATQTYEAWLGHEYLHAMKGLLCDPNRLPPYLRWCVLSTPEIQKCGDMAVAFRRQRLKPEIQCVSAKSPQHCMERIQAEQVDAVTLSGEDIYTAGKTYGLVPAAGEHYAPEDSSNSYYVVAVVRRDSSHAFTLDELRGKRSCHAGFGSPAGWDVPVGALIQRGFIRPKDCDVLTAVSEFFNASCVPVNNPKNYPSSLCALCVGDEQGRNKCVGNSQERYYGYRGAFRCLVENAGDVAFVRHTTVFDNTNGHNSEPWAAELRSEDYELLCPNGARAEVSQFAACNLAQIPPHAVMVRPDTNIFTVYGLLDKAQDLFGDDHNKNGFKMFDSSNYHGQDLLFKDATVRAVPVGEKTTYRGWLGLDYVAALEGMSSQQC
Procedure: (§1) Binding curves for each resulting antibody was determined by a competition binding assay. Briefly, 1×10⁵ RPMI-7951 cells stably expressing human CD228 were aliquoted per well of a 96-well v-bottom plates on ice. […] Cells were pelleted and washed 3 times with PBS/BSA. The cells were pelleted and resuspended in 125 μL of PBS/BSA. Fluorescence was analyzed by flow cytometry, using percent of saturated fluorescent signal to determine percent labeled murine CD228 mAb bound.

[13] = biological target: T2, human CD228 on the cell surface …; test: as above; remark: listed apart in the source
Procedure: as §1

[14] = biological target: T2, human CD228 on the cell surface …; test: saturation binding by flow cytometry on RPMI-7951 cells stably expressing human CD228; apparent KD
Procedure: (§2) The KD for each resulting antibody was then determined by a saturation binding assay. Briefly, 1×10⁵ RPMI-7951 cells stably expressing human CD228 were aliquoted per well of a 96-well v-bottom plates. Each CD228 antibody was added in concentrations ranging from 0.05 pM to 340 nM and incubated on ice for 60 minutes. Cells were pelleted and washed 3× with PBS/BSA followed by addition of 10 ug/ml of a PE labeled anti-human IgG goat secondary antibody and incubated on ice for an additional 60 minutes. Cells were pelleted and washed 3× with PBS/BSA and resuspended in 125 μL of PBS/BSA. Fluorescence was analyzed by flow cytometry, using percent of saturated fluorescent signal to determine percent bound and to subsequently calculate apparent KD. The binding curves for recombinant human anti-CD228 antibodies are shown in FIG. 13 and the KD for cL49ec (chimeric LA9 with an S239C mutation in the […] constant region), hL49 HALA G1, hL49 HALB G1, and hL49 HALC G1 are shown in Table 8. The antibody called “HALC,” “hL49,” or “hL49-HALC” which comprises heavy chain “HA” and the light chain “LC” was selected for use in all other experiments.

[15] = biological target: T2, human CD228 on the cell surface …; test: saturation binding by flow cytometry, RPMI-7951 cells stably expressing human CD228; PE anti-human IgG secondary; row 'ug/mL' of the drawn table headed 'kD'
Procedure: as §2

[16] = biological target: T2, human CD228 on the cell surface …; test: competition flow cytometry, RPMI-7951 cells stably expressing human CD228; competitor 5 nM AF647-labeled mL49; unlabeled antibody 0.06-1000 nM; remark: listed apart in the source
Procedure: as §1

[17] = biological target: T2, human CD228 on the cell surface …; test: as above; remark: listed apart in the source
Procedure: as §1

Molecule: cL235 (antibody)
EC50 [1]: 0.767 nM
EC50 [2]: 0.727 nM
EC50 [3]: 0.757 nM
EC50 [4]: 0.756 nM
EC50 [5]: 0.749 nM
EC50 [6]: 0.74 nM
EC50 [7]: 0.724 nM
EC50 [8]: 0.809 nM
EC50 [9]: 0.838 nM
EC50 [10]: 0.694 nM

B2: hL49ec HALA (antibody, V domains shown)
VH: QVQLQESGPGLVKPSETLSLTCTVSGDSITSGYWNWIRQPPGKGLEYIGYISDSGITYYNPSLKSRVTISRDTSKNQYSLKLSSVTAADTAVYYCARRTLATYYAMDYWGQGTLVTVSS
VL: DFVMTQSPLSLPVTLGQPASISCRASQSLVHSNGNTYLHWFQQRPGQSPRRLIYRVSNRFSGVPDRFSGSGSGTDFTLKISRVEAEDVGVYYCSQSTHVPPTFGQGTKLEIK
notes: Same variable regions as m5 (hL49 HALA G1); The sheet prints 'ec', so it is kept apart from the G1 form; also called HALA in the 'ec' format
IC50 (read off the curve) [12]: ~40 nM
IC50 (read off the curve) [13]: ~40 nM

B3: hL49 HALA G1 (antibody, V domains shown)
VH: QVQLQESGPGLVKPSETLSLTCTVSGDSITSGYWNWIRQPPGKGLEYIGYISDSGITYYNPSLKSRVTISRDTSKNQYSLKLSSVTAADTAVYYCARRTLATYYAMDYWGQGTLVTVSS
VL: DFVMTQSPLSLPVTLGQPASISCRASQSLVHSNGNTYLHWFQQRPGQSPRRLIYRVSNRFSGVPDRFSGSGSGTDFTLKISRVEAEDVGVYYCSQSTHVPPTFGQGTKLEIK
notes: Humanized L49 with heavy chain HA and light chain LA; 'G1' (IgG1)
Kd [14]: 5.3 nM
Kd [15]: 0.8 mg/L

B7: hL49ec HALB (antibody, V domains shown)
VH: QVQLQESGPGLVKPSETLSLTCTVSGDSITSGYWNWIRQPPGKGLEYIGYISDSGITYYNPSLKSRVTISRDTSKNQYSLKLSSVTAADTAVYYCARRTLATYYAMDYWGQGTLVTVSS
VL: DFVMTQSPLSLPVTLGQPASISCRASQSLVHSNGNTYLHWYQQRPGQSPRLLIYRVSNRFSGVPDRFSGSGSGTDFTLKISRVEAEDVGVYYCSQSTHVPPTFGQGTKLEIK
notes: Same variable regions as m6 (hL49 HALB G1); The sheet prints 'ec', so it is kept apart from the G1 form; also called HALB in the 'ec' format
IC50 (read off the curve) [13]: 20 to 30 nM

B8: hL49 HALB G1 (antibody, V domains shown)
VH: QVQLQESGPGLVKPSETLSLTCTVSGDSITSGYWNWIRQPPGKGLEYIGYISDSGITYYNPSLKSRVTISRDTSKNQYSLKLSSVTAADTAVYYCARRTLATYYAMDYWGQGTLVTVSS
VL: DFVMTQSPLSLPVTLGQPASISCRASQSLVHSNGNTYLHWYQQRPGQSPRLLIYRVSNRFSGVPDRFSGSGSGTDFTLKISRVEAEDVGVYYCSQSTHVPPTFGQGTKLEIK
notes: Humanized L49 with heavy chain HA and light chain LB; 'G1' (IgG1)
Kd [14]: 7.8 nM
Kd [15]: 1.2 mg/L

B9: cL49ec (chimeric L49 with an S239C mutation) (antibody, V domains shown)
VH: EVQLQESGPSLVKPSQTLSLTCSVTGDSITSGYWNWIRKFPGNKLEYMGYISDSGITYYNPSLKSRISITRDTSKNQYYLQLNFVTAEDTATYNCARRTLATYYAMDYWGQGTSVTVSS
VL: DFVMTQTPLSLPVSLGDQASISCRASQSLVHSNGNTYLHWYLQKPGQSPKLLIYRVSNRFSGVPDRFSGSGSGTDFTLKISRVEAEDLGVYFCSQSTHVPPTFGGGTKLEIK
notes: Human constant regions with S239C; also called chimeric LA9
IC50 (read off the curve) [16]: ~30 nM
IC50 (read off the curve) [17]: ~30 nM
IC50 (read off the curve) [12]: ~30 nM
IC50 (read off the curve) [13]: ~30 nM
Kd [14]: 5.8 nM
Kd [15]: 0.9 mg/L

Next, values leading:

IC50 (read off the curve) [11]: 60 nM
B1: hL49ec HCLA (antibody, V domains shown)
VH: QVQLQESGPGLVKPSETLSLTCTVSGDSITSGYWNWIRQFPGKGLEYMGYISDSGITYYNPSLKSRITISRDTSKNQYSLKLSFVTAADTAVYNCARRTLATYYAMDYWGQGTLVTVSS
VL: DFVMTQSPLSLPVTLGQPASISCRASQSLVHSNGNTYLHWFQQRPGQSPRRLIYRVSNRFSGVPDRFSGSGSGTDFTLKISRVEAEDVGVYYCSQSTHVPPTFGQGTKLEIK

IC50 (read off the curve) [11]: 40 nM
B4: hL49ec HBLA (antibody, V domains shown)
VH: QVQLQESGPGLVKPSETLSLTCTVSGDSITSGYWNWIRQFPGKGLEYMGYISDSGITYYNPSLKSRITISRDTSKNQYSLKLSSVTAADTAVYYCARRTLATYYAMDYWGQGTLVTVSS
VL: DFVMTQSPLSLPVTLGQPASISCRASQSLVHSNGNTYLHWFQQRPGQSPRRLIYRVSNRFSGVPDRFSGSGSGTDFTLKISRVEAEDVGVYYCSQSTHVPPTFGQGTKLEIK

IC50 (read off the curve) [11]: 20 nM
B5: hL49ec HCLB (antibody, V domains shown)
VH: QVQLQESGPGLVKPSETLSLTCTVSGDSITSGYWNWIRQFPGKGLEYMGYISDSGITYYNPSLKSRITISRDTSKNQYSLKLSFVTAADTAVYNCARRTLATYYAMDYWGQGTLVTVSS
VL: DFVMTQSPLSLPVTLGQPASISCRASQSLVHSNGNTYLHWYQQRPGQSPRLLIYRVSNRFSGVPDRFSGSGSGTDFTLKISRVEAEDVGVYYCSQSTHVPPTFGQGTKLEIK

IC50 (read off the curve) [11]: 30 nM
B6: hL49ec HBLB (antibody, V domains shown)
VH: QVQLQESGPGLVKPSETLSLTCTVSGDSITSGYWNWIRQFPGKGLEYMGYISDSGITYYNPSLKSRITISRDTSKNQYSLKLSSVTAADTAVYYCARRTLATYYAMDYWGQGTLVTVSS
VL: DFVMTQSPLSLPVTLGQPASISCRASQSLVHSNGNTYLHWYQQRPGQSPRLLIYRVSNRFSGVPDRFSGSGSGTDFTLKISRVEAEDVGVYYCSQSTHVPPTFGQGTKLEIK
